{"source": "patent US20130040360", "tested_on": "full-length rat proMMP9(1-708) (SEQ ID NO:11)", "sequence (chain, as listed by the source)": "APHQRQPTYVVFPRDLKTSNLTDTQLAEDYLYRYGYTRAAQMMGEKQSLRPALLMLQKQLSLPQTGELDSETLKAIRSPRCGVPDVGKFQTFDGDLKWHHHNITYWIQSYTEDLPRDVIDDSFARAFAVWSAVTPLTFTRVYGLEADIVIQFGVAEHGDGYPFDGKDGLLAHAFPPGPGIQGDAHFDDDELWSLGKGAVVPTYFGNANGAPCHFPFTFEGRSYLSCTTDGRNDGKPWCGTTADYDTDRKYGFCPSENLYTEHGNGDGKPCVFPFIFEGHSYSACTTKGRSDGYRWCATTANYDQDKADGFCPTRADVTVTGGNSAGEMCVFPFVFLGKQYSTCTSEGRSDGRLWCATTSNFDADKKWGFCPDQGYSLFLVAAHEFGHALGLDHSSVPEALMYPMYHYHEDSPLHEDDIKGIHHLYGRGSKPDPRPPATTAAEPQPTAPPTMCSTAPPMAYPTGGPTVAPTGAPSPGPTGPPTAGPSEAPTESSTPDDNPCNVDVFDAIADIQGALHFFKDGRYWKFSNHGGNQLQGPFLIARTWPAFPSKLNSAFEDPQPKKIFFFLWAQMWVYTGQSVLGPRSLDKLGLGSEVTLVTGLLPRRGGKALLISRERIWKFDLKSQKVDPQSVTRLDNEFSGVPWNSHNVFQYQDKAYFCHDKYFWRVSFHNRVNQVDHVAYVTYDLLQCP"}
{"substance": "human catalytic MMP3, MMP3(100-265) (SEQ ID NO:8)", "values": [{"measurement": "proteolytic conversion of proMMP9 to catalytic MMP9", "value": "full-length rat proMMP9(1-708) (SEQ ID NO:11) converted to catalytic rat MMP9 by catalytic MMP3"}]}
